Measured values reported in patent US20240317858A1.

B1: Antibody No. A002 (ADI-50024) IgG1 (antibody, V domains shown)
VH: QVQLVQSGAEVKKPGASVKVSCKASGFNIKDYYMHWVRQAPGQRLEWIGWIDLENANTVYDAKFQGRVTITRDTSASTAYMELSSLRSEDTAVYYCARDAYGRYFYDVWGQGTLVTVSS
VL: DIVMSQSPDSLAVSLGERATINCKSSQSLLNARTGKNYLAWYQQKPGQPPKLLIYWASTRSSGVPDRFSGSGSGTDFTLTISSLQAEDVAVYYCVQSYFRRTFGGGTKVEIK
B2: Antibody No. V013 (ADI-70330) IgG1 (antibody, V domains shown)
VH: QVQLVQSGAEVKKPGASVKVSCKASGFNIDDYYMHWVRQAPGQRLEWIGWIDLENANTVDDAKFQGRVTITRDTSASTAYMELSSLRSEDTAVYYCARDAYGRYFYDVWGQGTLVTVSS
VL: DIVMSQSPDSLAVSLGERATINCKSSQSLLNARTGKNYLAWYQQKPGQPPKLLIYWASTRSSGVPDRFSGSGSGTDFTLTISSLQAEDVAVYYCVQSYFRRTFGGGTKVEIK
B3: Antibody No. V009 (ADI-70326) IgG1 (antibody, V domains shown)
VH: QVQLVQSGAEVKKPGASVKVSCKASGFDIKDYYMHWVRQAPGQRLEWIGWIELENADTVYDAKFQGRVTITRDTSASTAYMELSSLRSEDTAVYYCARDAYGRYFYDVWGQGTLVTVSS
VL: DIVMSQSPDSLAVSLGERATINCKSSQSLLNARTGKNYLAWYQQKPGQPPKLLIYWASTRSSGVPDRFSGSGSGTDFTLTISSLQAEDVAVYYCVQSYFRRTFGGGTKVEIK
B4: Antibody No. V010 (ADI-70327) IgG1 (antibody, V domains shown)
VH: QVQLVQSGAEVKKPGASVKVSCKASGFDIKDYYMHWVRQAPGQRLEWIGWIELENDDTVYDAKFQGRVTITRDTSASTAYMELSSLRSEDTAVYYCARDAYGRYFYDVWGQGTLVTVSS
VL: DIVMSQSPDSLAVSLGERATINCKSSQSLLNARTGKNYLAWYQQKPGQPPKLLIYWASTRSSGVPDRFSGSGSGTDFTLTISSLQAEDVAVYYCVQSYFRRTFGGGTKVEIK

biological target: Mouse CD3εδ Fc heterodimer (mouse) (UniProt P22646); experiment: BLI (Octet), IgG avidity, pH 7.4

Question: With B1 as the binder, how does the Kd read?
Answer: 91 nM

Question: Which Kd does the source give for B2 here?
Answer: 530 nM

Question: How did the Kd turn out when B3 was run?
Answer: 360 nM

Question: With B4 as the binder, how does the Kd read?
Answer: 510 nM
